Assay [1] has as its target mouse TfR (Mus musculus, UniProt Q62351). In words: Cross-reactivity of TfR436 antibody with mouse TfR. It is filed as binding.
In assay [2] the target is hamster TfR (Cricetulus griseus, UniProt Q07891). In words: Cross-reactivity of TfR436 antibody with hamster TfR. The format is binding.
The subject of assay [3] is HYDREA (registered trademark)-administered patient-derived hematopoietic stem cells. In words: Erythroblast colony assay, HYDREA-administered patients. It is filed as cell-based, human. The protocol: The peripheral blood of a PV patient, which had been obtained by phlebotomy, was dispensed into three 50-mL centrifuge tubes in an amount of 20 mL each, and an equal amount of PBS (Gibco) was then added to each tube, followed by mixing. Thereafter, 15 mL of LymphoSep, Lymphocyte Separation Media (MP Biomedicals™) was dispensed into […] novel 50-mL centrifuge tubes, and the peripheral blood diluted with PBS was then slowly added thereto in an amount of 30 mL each, and the obtained mixture was then centrifuged at 1,500 rpm at room temperature for 30 minutes. After completion of the centrifugation, the plasma as a supernatant was removed, and a PBMC layer was collected by transfer pipetting. The collected PBMC layer was suspended in 20 mL of PBS+2% FBS (Gibco). The thus obtained suspension was further centrifuged at 1350 rpm at room temperature for 10 minutes, a supernatant was then removed, and the residue was then suspended in 1 to 5 mL of IMDM (Nacalai Tesque)+2% FBS. Using 0.2% Trypan Blue, the number of cells was counted, and the cells were adjusted to 2×10^6 cells/mL by addition of IMDM+2% FBS.
TfR436 and a human IgG1 antibody used as a negative control were each diluted with IMDM+2% FBS to an antibody concentration of […]. MethoCult™ H4534 Classic WithoutEPO (STEMCELL TECHNOLOGIES) was dispensed into seven 14-mL round bottle tubes in an amount of 3 mL each, and 300 jut of the above-prepared PBMC was then added thereto. Thereafter, an antibody-diluted solution or 3.3 μL of IMDM+2% FBS (control) was further added thereto, followed by full mixing. Thereafter, the reaction mixture was seeded on two 35-mm culture dishes in an amount of 1 mL each. This mixture was cultured at 37° C. in a 5% CO2 incubator for 14 days. After completion of the culture, the 35-mm culture dishes were observed under a microscope, and the number of the formed BFU-E or CFU-E colonies was then counted. The colony formation percentage with respect to the number of colonies obtained by a culture without addition of antibodies was then calculated.
Hematopoietic stem cells derived from patients administered with HYDREA (registered trademark) were used as PV patient-derived hematopoietic stem cells, and the activity of TfR436 to inhibit erythroblast colony formation was examined by the same method as that of Example 3. Besides, HYDREA (registered trademark) was administered as hydroxycarbamide (also referred to as “hydroxyurea”) to the patients via oral administration at a daily dose of 500 mg to 2000 mg once or divided over twice or three times. As a result, erythroblast colony formation was inhibited by addition of 100 ng/mL or more TfR436 (Table 2).

hamster TfR, sequence (Q07891 whole entry): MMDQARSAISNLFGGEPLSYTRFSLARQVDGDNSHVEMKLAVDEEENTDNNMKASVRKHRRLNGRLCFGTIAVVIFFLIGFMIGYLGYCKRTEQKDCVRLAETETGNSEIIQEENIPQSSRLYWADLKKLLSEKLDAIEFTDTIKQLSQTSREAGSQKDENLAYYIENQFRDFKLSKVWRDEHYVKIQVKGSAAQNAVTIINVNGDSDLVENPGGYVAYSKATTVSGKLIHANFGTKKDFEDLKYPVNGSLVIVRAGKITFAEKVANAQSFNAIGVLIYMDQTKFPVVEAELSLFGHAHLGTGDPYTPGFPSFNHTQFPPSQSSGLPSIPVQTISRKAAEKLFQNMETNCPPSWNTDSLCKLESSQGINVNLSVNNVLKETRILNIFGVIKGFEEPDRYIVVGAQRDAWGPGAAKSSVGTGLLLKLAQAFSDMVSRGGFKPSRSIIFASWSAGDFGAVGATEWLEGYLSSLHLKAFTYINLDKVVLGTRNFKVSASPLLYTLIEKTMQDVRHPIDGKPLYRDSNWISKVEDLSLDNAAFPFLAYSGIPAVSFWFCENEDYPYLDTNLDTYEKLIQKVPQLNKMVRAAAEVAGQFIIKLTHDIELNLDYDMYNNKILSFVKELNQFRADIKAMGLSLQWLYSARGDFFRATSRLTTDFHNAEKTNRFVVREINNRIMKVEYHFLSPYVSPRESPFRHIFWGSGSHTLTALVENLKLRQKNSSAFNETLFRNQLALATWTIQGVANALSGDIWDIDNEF
mouse TfR, sequence (Q62351 whole entry): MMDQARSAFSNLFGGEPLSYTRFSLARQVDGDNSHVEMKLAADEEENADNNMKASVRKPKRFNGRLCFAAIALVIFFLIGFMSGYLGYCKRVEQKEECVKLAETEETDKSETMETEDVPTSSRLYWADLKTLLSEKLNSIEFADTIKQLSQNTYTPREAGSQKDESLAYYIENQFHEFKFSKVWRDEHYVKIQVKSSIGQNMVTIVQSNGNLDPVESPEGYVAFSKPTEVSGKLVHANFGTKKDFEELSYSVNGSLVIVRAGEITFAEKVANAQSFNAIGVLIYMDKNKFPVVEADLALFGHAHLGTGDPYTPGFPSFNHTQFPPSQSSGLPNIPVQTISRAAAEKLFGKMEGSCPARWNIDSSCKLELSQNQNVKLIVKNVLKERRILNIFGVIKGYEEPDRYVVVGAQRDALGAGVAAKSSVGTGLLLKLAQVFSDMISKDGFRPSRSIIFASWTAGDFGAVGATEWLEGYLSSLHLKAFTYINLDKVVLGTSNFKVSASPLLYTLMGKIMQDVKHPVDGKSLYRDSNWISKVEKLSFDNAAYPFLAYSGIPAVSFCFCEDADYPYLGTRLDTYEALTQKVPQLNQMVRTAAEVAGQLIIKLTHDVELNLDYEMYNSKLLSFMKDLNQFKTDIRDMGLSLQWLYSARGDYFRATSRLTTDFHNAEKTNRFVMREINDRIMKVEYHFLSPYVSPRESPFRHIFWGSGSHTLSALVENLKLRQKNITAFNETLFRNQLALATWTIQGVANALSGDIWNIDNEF

B1: TfR436: anti-human transferrin receptor antibody, VH SEQ ID NO: 7 and VL SEQ ID NO: 8, described in WO2014/073641; called PPMX-T003 in Tables 3 and 4 (antibody, listed as Homo sapiens, V domains shown)
VH: DVQLVQSGGGVVQPGRSLRLSCAASGFPFKSYGMHWVRQAPGKGLEWVAVISYDGSNKYYADSVKGRFTISRDNSKNTLYLQMNSLRGEDTAVYYCARDSNFWSGYYSPVDVWGQGTTVTVSS
VL: NFMLTQPHSVSESPGKTVTISCTRSSGSIASNSVQWYQQRPGSAPITVIYEDTQRPSGVPDRFSGSIDSSSNSASLTISGLQTEDEADYYCQSYDSAYHWVFGGGTKLAVL
B1: the “cross-reactivity with mouse TfR” value in assay [1] is “did not cross-react”. Moreover, the “cross-reactivity with hamster TfR” value in assay [2] is listed as “exhibited cross-reactivity”. Also, the erythroblast colony formation result in assay [3] (100 ng/mL or more) is given as “inhibited”. In addition, the “colony formation percentage with respect to culture without addition of antibodies” value was found to be 109.1% in assay [3] (HYDREA-administered pt No. 1, 10 ng/mL); 0.0% in assay [3] (HYDREA-administered pt No. 1, 100 ng/mL); 0.0% in assay [3] (HYDREA-administered pt No. 1, 1000 ng/mL); 100.0% in assay [3] (HYDREA-administered pt No. 23, 10 ng/mL); 0.0% in assay [3] (HYDREA-administered pt No. 23, 100 ng/mL); 0.0% in assay [3] (HYDREA-administered pt No. 23, 1000 ng/mL). The “colony formation percentage with respect to culture without addition of antibodies” value is on record as 68.6% in assay [3] (HYDREA-administered pt No. 24, 10 ng/mL); 0.0% in assay [3] (HYDREA-administered pt No. 24, 100 ng/mL); 0.0% in assay [3] (HYDREA-administered pt No. 24, 1000 ng/mL); 148.9% in assay [3] (HYDREA-administered pt No. 26, 10 ng/mL); 10.6% in assay [3] (HYDREA-administered pt No. 26, 100 ng/mL); 0.0% in assay [3] (HYDREA-administered pt No. 26, 1000 ng/mL). The “colony formation percentage with respect to culture without addition of antibodies” value was found to be 152.4% in assay [3] (HYDREA-administered pt No. 27, 10 ng/mL); 0.0% in assay [3] (HYDREA-administered pt No. 27, 100 ng/mL); 0.0% in assay [3] (HYDREA-administered pt No. 27, 1000 ng/mL); 112.5% in assay [3] (HYDREA-administered pt No. 28, 10 ng/mL); 0.0% in assay [3] (HYDREA-administered pt No. 28, 100 ng/mL); 0.0% in assay [3] (HYDREA-administered pt No. 28, 1000 ng/mL).
